In doi:10.1101/2023.03.09.531992 (bioRxiv, 2023) one finds binding result and Kd data, which are given here for four molecules.

Where a chain is given by its changes, count along the chain named. No end group written: not given here.

For assay [1], the target named is T1, S. cerevisiae β’WD40 domain (N-terminal WD40 domain of β’-COPI), wild type (S. cerevisiae, UniProt P41811 1-300).
T1 sequence: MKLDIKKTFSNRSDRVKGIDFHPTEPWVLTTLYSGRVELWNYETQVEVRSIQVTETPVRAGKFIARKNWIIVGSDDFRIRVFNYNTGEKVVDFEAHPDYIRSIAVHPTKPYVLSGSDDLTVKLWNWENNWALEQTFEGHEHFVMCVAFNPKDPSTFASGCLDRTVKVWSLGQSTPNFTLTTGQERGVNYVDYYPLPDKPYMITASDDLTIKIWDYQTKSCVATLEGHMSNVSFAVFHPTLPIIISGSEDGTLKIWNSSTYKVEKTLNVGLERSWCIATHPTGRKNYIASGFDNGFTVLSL
Description: NMR titration.

Assay [2] has as its target T2, S. pombe αWD40 Tyr139Ala mutant (S. pombe, UniProt Q96WV5 1-327, Tyr139Ala).
T2 sequence: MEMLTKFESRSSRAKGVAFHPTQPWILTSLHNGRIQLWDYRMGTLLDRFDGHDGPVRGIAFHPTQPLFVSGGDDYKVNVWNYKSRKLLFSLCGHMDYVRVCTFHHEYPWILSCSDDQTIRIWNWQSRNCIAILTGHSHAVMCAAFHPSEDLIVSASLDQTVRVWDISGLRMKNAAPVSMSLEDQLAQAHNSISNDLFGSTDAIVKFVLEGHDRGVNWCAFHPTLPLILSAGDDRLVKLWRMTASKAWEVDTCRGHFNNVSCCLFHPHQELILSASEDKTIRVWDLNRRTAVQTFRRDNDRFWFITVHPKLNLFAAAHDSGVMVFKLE
Description: BLI. In general terms: In BLI a coated tip is dipped into the sample, and binding shifts an interference pattern.

Assay [3] concerns the target T1, S. cerevisiae β’WD40 domain (N-terminal …). The experiment in a line: BLI.
In assay [4] the target is T3, S. pombe αWD40 Arg300Ala mutant (S. pombe, UniProt Q96WV5 1-327, Arg300Ala).
T3 sequence: T2 sequence with A139Y, R300A
The experiment in a line: BLI.

The target of assay [5] is T4, S. pombe αWD40 Arg13Ala mutant (S. pombe, UniProt Q96WV5 1-327, Arg13Ala).
T4 sequence: T2 sequence with R13A, A139Y
Description: BLI.

Assay [6] addresses T5, S. pombe αWD40 domain (N-terminal WD40 domain of α-COPI), wild type (S. pombe, UniProt Q96WV5 1-327).
T5 sequence: T2 sequence with A139Y
The experiment in a line: BLI.

B1: 15N-labeled clientized (Thr1273Glu) SARS-CoV-2 S C-terminal tail peptide (NMR) (peptide)
peptide: CCKFDEDDSEPVLKGVKLHYE
modifications: cysteine pairing not given here; also: 15N isotope label
With B1, the binding result in assay [1] is “binds”.

B2: clientized (Thr1273Glu) SARS-CoV-2 S tail heptapeptide (residues 1267-1273), biotinylated (peptide)
peptide: GVKLHYE
modifications: also: biotinylated
In general, Kd refers to a measure of binding affinity in units of concentration. As to B2, the Kd in assay [2] was 3.8 ± 0.36 µM; in assay [3], 2.3 ± 0.23 µM; in assay [4], 4.2 ± 0.4 µM.

B3: wild-type SARS-CoV-2 S tail heptapeptide (residues 1267-1273), biotinylated (peptide)
peptide: GVKLHYT
modifications: also: biotinylated
Consider B3, for which, in assay [5], the binding result is “binds”. This molecule had a Kd in assay [4] of 3.6 ± 0.4 µM.

B4: amidated clientized (Thr1273Glu) S heptapeptide (C-terminal main chain carboxylate amidated), biotinylated (peptide)
peptide: GVKLHYE-NH2
modifications: also: biotinylated
Take B4: the binding result in assay [6] is given as “binds”.
